For one molecule, OD450nm results are on record in CN112500478A.

The assay deals with 非洲猪瘟病毒(African swine fever Virus, ASFV)全病毒 / 灭活非洲猪瘟病毒抗原.

B1: 抗非洲猪瘟病毒的ScFv抗体VH-VLλ6 (scFv)
scFv: MEVKLVESGGGLVQPGGSLRLSCVGSGVTVTSYTVSWVRQAPGKGLEWLAGNGSSSKTTVDSDSVRGRFFISRDNSQNTAYLQMNSLRTEDTARYYCVQTIDSDCTSRLWGPGVEVVVGGGGSGGMSQTVIQEPAMSVSPGGTVTLTCAFSSATVTISNYPGWYQQTPRQPPRQLIYGLSSRPTGVPSRFSGAISGNKATLTITGAQAEDEADYFCALYNAGSRYNYMFGGGTHLTVL
Molecule B1 showed an OD450nm of 1.15 OD450nm.
